# Laboratory results taken from PMC11808413 (FEBS letters, 2024).
# No end group written: not given here.
# Assays:
# [1] = molecular target: the molecule itself; experiment: non-reducing SDS-urea-PAGE (disulfide-linked oligomers); 5 uM desalted MBP-tagged lumenal segment, air-oxidized or with 2 mM diamide or H2O2 for 30 minutes at room temperature, non-reducing 8 % SDS-urea-PAGE; oxidants raise the share of dimers, and higher order oligomers appear for the wild type
# [2] = molecular target: the molecule itself; experiment: non-reducing gel (disulfide-linked oligomers); air-oxidized MBP-tagged LTO1 alone (Fig. 3, lane 2)
Protein,binding result [1],binding result [2]
"AQLIDTVHNLFIGVGVGLPSTVMECGDMIYRSTLPKSNGLTITA (domain or fragment, UniProt Q9S713 46-89, looked up, also: MBP-tagged) [MBP-tagged lumenal segment of Arabidopsis thaliana STN7 (AA 46-89), C65S]",binds,
"AQLIDTVHNLFIGVGVGLPCTVMESGDMIYRSTLPKSNGLTITA (domain or fragment, UniProt Q9S713 46-89, looked up, also: MBP-tagged) [MBP-tagged lumenal segment of Arabidopsis thaliana STN7 (AA 46-89), C70S]",binds,
"MBP-tagged lumenal segment of Arabidopsis thaliana LTO1 (AA 251-376) (domain or fragment, UniProt Q8L540 251-376, looked up) SRSGDIELPYFRTEISSSSSPYAIALAKHLNSIGAKMYGAFWCSHCLEQKEMFGREAAKELNYVECFPDGYKKGTKILKACADAAIEGFPTWIINDKVLSGEIELAELAEMTGFSLDQANETNQLQ",,binds
